Earlier results as cited in article PMC8745080.

What was measured:
His98 [1] = biological target: His98 (UniProt position 99, SEKFSHEQEVK); assay: not stated (the review mentions pH-dependent NMR measurements on cL-BABP in the same section); conditions: apo (ligand-free), folded
His98 [2] = biological target: T1, His98 (UniProt position 99, NFPNYHQTSEI); assay: NMR; conditions: apo (ligand-free), folded
His98 [3] = biological target: T1, His98; assay: not stated (NMR inferred from the apo data of the same reference); conditions: holo (bile-salt-bound; identity of the bound bile salts not given), folded

Chicken liver bile acid-binding protein (cL-BABP; liver basic fatty acid-binding protein) (Gallus gallus)
pKa (His98 [1]): 4.7

Human ileal bile acid-binding protein (hI-BABP; gastrotropin, FABP6), common isoform (Homo sapiens)
pKa (His98 [2]): 6.6
pKa (His98 [3]): 7.0
